Where only a bound is given, the exact number is not on record here.

The subject of series [1] is INO80 complex (Ino80-FLAG) (Saccharomyces cerevisiae S288C). Put plainly: EMSA. The note with it: saturating INO80, 30 C, EMSA: 10 mM Na-HEPES pH 7.8, 4 mM MgCl2, 60 mM NaCl, 0.2 mM EGTA, 0.04 mM EDTA, 8% glycerol, 0.1 ug/uL BSA, 30 min, footprinting and crosslinking at 30 C. (In general: Mobility shift assays separate free from complexed probe on a gel.)
Series [2] deals with Ino80 (catalytic subunit within INO80 complex) (Saccharomyces cerevisiae S288C). Put plainly: site-specific DNA photocrosslinking. The settings on record: 10 A tether, in INO80 complex, AB-dUMP (10 A) or ABG2-dUMP (18.6 A) at nt -58 from dyad, EMSA: 10 mM Na-HEPES pH 7.8, 4 mM MgCl2, 60 mM NaCl, 0.2 mM EGTA, 0.04 mM EDTA, 8% glycerol, 0.1 ug/uL BSA, 30 C, 30 min, footprinting and crosslinking at 30 C.

Series [3] deals with H2A-containing mono-nucleosome (recombinant Xenopus laevis histone octamer on 601 DNA with 70 bp of extranucleosomal DNA) (Xenopus laevis) (UniProt P06897). Nature of the series: native gel or EMSA; 70N0 nucleosomes with photoreactive DNA bound with saturating amounts of INO80 at 30 °C; extent of binding assessed on 4% native polyacrylamide gels.

Consider “70N0 nucleosome, photoreactive dUMP at nt -33/-30”, for which, in series [1] (photoreactive dUMP at nt -30 to -33 from dyad), the binding signal (% nucleosomes bound) was greater than 90.
In series [1] (AB-dUMP (10 A) or ABG2-dUMP (18.6 A) at nt -58 from dyad), “70N0 nucleosome, photoreactive dUMP at nt -58” displayed a binding signal (% nucleosomes bound) greater than 90. For the same substance, the binding signal (fold crosslinking vs no nucleotide) in series [2] (ADP) and in series [2] (ATPgS) was 4 each time.
Take “INO80 complex (from UniProt P53115 1-1489; P80428 1-489; P40154 1-320)”: in series [3], the percent of nucleosomes bound is greater than 90%.

Source of the values: paper PMC5472786.
